The values that follow are results of earlier work, collected in publication PMC4340704.

The term pKa denotes the pH at which an ionisable group is half protonated.

For this series, the target named is Cys106 (UniProt position 106, LIAAICAGPTA). Conditions: reduced Cys106 thiol/thiolate implied; otherwise not stated.

For “DJ-1 (Parkinson disease protein 7) (Homo sapiens)”, the pKa is 5.4.
